Results as given in patent US20160347810A1 (AFASCI, published 2016).
No end group written: not given here.

target: T1, human calcitonin CGRP1 (CGRP1) membrane (human, UniProt Q16602 23-461; O60894 27-148); assay: displacement of 0.24 nM [125I]-CGRP from human CGRP1 receptor membranes, filtration; Ki by Cheng-Prusoff; mean ± SD
T1 construct: whole, on cells; Purchased membrane preparation (Perkin Elmer), homogenised in assay buffer; the receptor stood in membranes, not intact cells; also called CGRP receptors; CGRP receptor
T1 sequence (Q16602 23-461, chain 1 of 2): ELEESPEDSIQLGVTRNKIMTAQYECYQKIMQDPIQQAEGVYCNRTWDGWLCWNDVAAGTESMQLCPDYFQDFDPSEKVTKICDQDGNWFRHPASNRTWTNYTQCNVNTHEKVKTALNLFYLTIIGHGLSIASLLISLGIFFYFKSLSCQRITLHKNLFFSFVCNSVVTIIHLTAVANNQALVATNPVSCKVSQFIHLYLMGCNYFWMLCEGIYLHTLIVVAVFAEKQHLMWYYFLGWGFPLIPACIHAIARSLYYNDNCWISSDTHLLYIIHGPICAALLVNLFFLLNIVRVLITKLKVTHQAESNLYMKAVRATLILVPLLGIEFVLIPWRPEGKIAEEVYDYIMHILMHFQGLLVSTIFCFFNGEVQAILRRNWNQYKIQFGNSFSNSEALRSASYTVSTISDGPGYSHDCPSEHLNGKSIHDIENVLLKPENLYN
T1 sequence (O60894 27-148, chain 2 of 2): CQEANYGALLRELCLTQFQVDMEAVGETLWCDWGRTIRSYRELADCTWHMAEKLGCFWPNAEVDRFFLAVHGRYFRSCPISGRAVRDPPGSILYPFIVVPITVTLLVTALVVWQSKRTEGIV
Description: CGRP1 membrane was homogenized in the assay buffer (50 mM Tris-HCl pH 7.4, 5 mM MgCl₂, 0.5% BSA, 0.05% Tween20). […] After 1 h of incubation, at room temperature, samples were filtered, using a Tomtec cell harvester, through glass fiber filters that had been presoaked in 0.05% polyethyleneimine and washed with the cold Tris buffer (50 mM Tris-HCl pH7.4). Filters were counted on a betaplate reader (Wallac).

| Binder | Ki [nM] |
| --- | --- |
| YVPTAVGPFAF-NH2 (also called conventional CGRP 27-37) [CGRP 27-37] | 697 |
| H-NFVPTNVGPFAF-NH2 (Synthetic dodecapeptide NH2-N-F-V-P-T-N-V-G-P-F-A-F-CONH2; also called AFA-CGRP receptor antagonist peptide 3) [AFA-Peptide 3 (MP-3)] | 33.3 |
| H-NFLPTNVGPFAF-NH2 (Analog of AFA-peptide 3: NH2-N-F-L-P-T-N-V-G-P-F-A-F-CONH2) [AFA-Peptide 7 (MP-7)] | 54.8 |
| H-NFFPTNVGPFAF-NH2 (Analog of AFA-peptide 3: NH2-N-F-F-P-T-N-V-G-P-F-A-F-CONH2) [AFA-Peptide 9 (MP-9)] | 49.6 |
| H-NFIPTNVGPFAF-NH2 (Analog of AFA-peptide 3: NH2-N-F-I-P-T-N-V-G-P-F-A-F-CONH2) [AFA-Peptide 6 (MP-6)] | 63.7 |
| H-NLVPTNVGPFAF-NH2 (Analog of AFA-peptide 3: NH2-N-L-V-P-T-N-V-G-P-F-A-F-CONH2) [AFA-Peptide 8 (MP-8)] | 315 |
| H-NFAPTNVGPFAF-NH2 (Analog of AFA-peptide 3: NH2-N-F-A-P-T-N-V-G-P-F-A-F-CONH2) [AFA-Peptide 10 (MP-10)] | 33.4 |
